# Laboratory results as given in patent US20060105953.
# Test system: UbG-DsRx
substance,measurement,value
caspase-3,red fluorescence (DsRed) in live transgenic zebrafish embryos,A control embryo (FIG. 1b) injected with a construct where the linker does not contain a cleavage site doesn't express any detectable red fluorescence (FIG. 1c)
